The target of assay [1] is NMDA receptor GluN1 subunit (mouse (endogenous in primary cortical neurons)) (UniProt P35438).
The target is the same in assay [2]. The assay is described as follows: co-IP; extracts of neurons exposed 10 min to 14.4 nM biotinylated Fib-Tau; immunoprecipitation with anti-α3-NKA, anti-GluA2 or anti-GluN1 and protein G magnetic beads, 4°C; Fib-Tau detected on slot blot with streptavidin-HRP; controls with pre-immune goat or rabbit IgG.

Data on 1 substance can be found in paper PMC6356061.

Turning to “Biotin-labelled fibrillar Tau-1N3R (Fib-Tau-1N3R) (from UniProt P10636-4 1-381) (natural protein)”, the change in the amount (fluorescence intensity) of synaptic GluN1-NMDA after exposure of neurons to Fib-Tau (0.36 nM, 60 min); no change in assay [1] was -3.2%. In assay [2], this substance displayed a fold enrichment in Tau band intensity over pre-immune IgG control of 1.8 fold.
